Laboratory results from the supplement of paper PMC11316812.
± gives the standard deviation of the averaged measurements.

What was measured:
[1] = tested on: hTERT-HMEC; test: percentage of EdU-negative (G0-arrested) nuclei per well, 72 h; higher = more G0 arrest; conditions: reference: sequence is the full UniProt precursor, the tested protein was the secreted form or ectodomain
[2] = tested on: MCF7; test: as above; conditions: reference: sequence is the full UniProt precursor, the tested protein was the secreted form or ectodomain
[3] = protein concentration 0.01975 µM
[4] = protein concentration 0.1975 µM
[5] = protein concentration 0.0225 µM
[6] = protein concentration 0.0286875 µM
[7] = protein concentration 0.286875 µM
[8] = protein concentration 0.0257143 µM
[9] = protein concentration 0.257143 µM
[10] = protein concentration 0.01503 µM
[11] = protein concentration 0.1503 µM
[12] = protein concentration 0.0199575 µM
[13] = protein concentration 0.03125 µM
[14] = protein concentration 0.199575 µM
[15] = protein concentration 0.3125 µM
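Further: secreted proteins added to cultured cells, EdU pulse at the end, nuclei found by Hoechst imaging, EdU status from nuclear versus surrounding ring intensity ratio, PBS as neutral control.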

MAAAASPAFLLCLPLLHLLSGWSRAGWVDTHCLCYDFIITPKSRPEPQWCEVQGLVDERPFLHYDCVNHKAKAFASLGKKVNVTKTWEEQTETLRDVVDFLKGQLLDIQVENLIPIEPLTLQARMSCEHEAHGHGRGSWQFLFNGQKFLLFDSNNRKWTALHPGAKKMTEKWEKNRDVTMFFQKISLGDCKMWLEEFLMYWEQMLDPTKPPSLAPGTTQPKAMATTLSPWSLLIIFLCFILAGR [Q9BZM6]
percentage of EdU-negative [1, 3]: 4.75 ± 0.89%
percentage of EdU-negative [1, 4]: 6.21 ± 1.1%
percentage of EdU-negative [2, 3]: 24.2 ± 1.6%
percentage of EdU-negative [2, 4]: 25.4 ± 1.1%

MMSFVQKGSWLLLALLHPTIILAQQEAVEGGCSHLGQSYADRDVWKPEPCQICVCDSGSVLCDDIICDDQELDCPNPEIPFGECCAVCPQPPTAPTRPPNGQGPQGPKGDPGPPGIPGRNGDPGIPGQPGSPGSPGPPGICESCPTGPQNYSPQYDSYDVKSGVAVGGLAGYPGPAGPPGPPGPPGTSGHPGSPGSPGYQGPPGEPGQAGPSGPPGPPGAIGPSGPAGKDGESGRPGRPGERGLPGPPGIKGPAGIPGFPGMKGHRGFDGRNGEKGETGAPGLKGENGLPGENGAPGPMGPRGAPGERGRPGLPGAAGARGNDGARGSDGQPGPPGPPGTAGFPGSPGAKGEVGPAGSPGSNGAPGQRGEPGPQGHAGAQGPPGPPGINGSPGGKGEMGPAGIPGAPGLMGARGPPGPAGANGAPGLRGGAGEPGKNGAKGEPGPRGERGEAGIPGVPGAKGEDGKDGSPGEPGANGLPGAAGERGAPGFRGPAGPNGIPGEKGPAGERGAPGPAGPRGAAGEPGRDGVPGGPGMRGMPGSPGGPGSDGKPGPPGSQGESGRPGPPGPSGPRGQPGVMGFPGPKGNDGAPGKNGERGGPGGPGPQGPPGKNGETGPQGPPGPTGPGGDKGDTGPPGPQGLQGLPGTGGPPGENGKPGEPGPKGDAGAPGAPGGKGDAGAPGERGPPGLAGAPGLRGGAGPPGPEGGKGAAGPPGPPGAAGTPGLQGMPGERGGLGSPGPKGDKGEPGGPGADGVPGKDGPRGPTGPIGPPGPAGQPGDKGEGGAPGLPGIAGPRGSPGERGETGPPGPAGFPGAPGQNGEPGGKGERGAPGEKGEGGPPGVAGPPGGSGPAGPPGPQGVKGERGSPGGPGAAGFPGARGLPGPPGSNGNPGPPGPSGSPGKDGPPGPAGNTGAPGSPGVSGPKGDAGQPGEKGSPGAQGPPGAPGPLGIAGITGARGLAGPPGMPGPRGSPGPQGVKGESGKPGANGLSGERGPPGPQGLPGLAGTAGEPGRDGNPGSDGLPGRDGSPGGKGDRGENGSPGAPGAPGHPGPPGPVGPAGKSGDRGESGPAGPAGAPGPAGSRGAPGPQGPRGDKGETGERGAAGIKGHRGFPGNPGAPGSPGPAGQQGAIGSPGPAGPRGPVGPSGPPGKDGTSGHPGPIGPPGPRGNRGERGSEGSPGHPGQPGPPGPPGAPGPCCGGVGAAAIAGIGGEKAGGFAPYYGDEPMDFKINTDEIMTSLKSVNGQIESLISPDGSRKNPARNCRDLKFCHPELKSGEYWVDPNQGCKLDAIKVFCNMETGETCISANPLNVPRKHWWTDSSAEKKHVWFGESMDGGFQFSYGNPELPEDVLDVHLAFLRLLSSRASQNITYHCKNSIAYMDQASGNVKKALKLMGSNEGEFKAEGNSKFTYTVLEDGCTKHTGEWSKTVFEYRTRKAVRLPIVDIAPYDIGGPDQEFGVDVGPVCFL
percentage of EdU-negative [1, 5]: 4.96 ± 0.66%
percentage of EdU-negative ([1]; protein concentration 0.225 µM): 6.99 ± 0.87%
percentage of EdU-negative [2, 5]: 26.55 ± 0.19%
percentage of EdU-negative ([2]; protein concentration 0.225 µM): 27.4 ± 1.2%

MKFFLLLFTIGFCWAQYSPNTQQGRTSIVHLFEWRWVDIALECERYLAPKGFGGVQVSPPNENVAIYNPFRPWWERYQPVSYKLCTRSGNEDEFRNMVTRCNNVGVRIYVDAVINHMCGNAVSAGTSSTCGSYFNPGSRDFPAVPYSGWDFNDGKCKTGSGDIENYNDATQVRDCRLTGLLDLALEKDYVRSKIAEYMNHLIDIGVAGFRLDASKHMWPGDIKAILDKLHNLNSNWFPAGSKPFIYQEVIDLGGEPIKSSDYFGNGRVTEFKYGAKLGTVIRKWNGEKMSYLKNWGEGWGFVPSDRALVFVDNHDNQRGHGAGGASILTFWDARLYKMAVGFMLAHPYGFTRVMSSYRWPRQFQNGNDVNDWVGPPNNNGVIKEVTINPDTTCGNDWVCEHRWRQIRNMVIFRNVVDGQPFTNWYDNGSNQVAFGRGNRGFIVFNNDDWSFSLTLQTGLPAGTYCDVISGDKINGNCTGIKIYVSDDGKAHFSISNSAEDPFIAIHAESKL
percentage of EdU-negative [1, 6]: 5.1 ± 0.51%
percentage of EdU-negative [1, 7]: 11.4 ± 1.2%
percentage of EdU-negative [2, 6]: 25.6 ± 0.39%
percentage of EdU-negative [2, 7]: 26.4 ± 0.48%

MLPGAWLLWTSLLLLARPAQPCPMGCDCFVQEVFCSDEELATVPLDIPPYTKNIIFVETSFTTLETRAFGSNPNLTKVVFLNTQLCQFRPDAFGGLPRLEDLEVTGSSFLNLSTNIFSNLTSLGKLTLNFNMLEALPEGLFQHLAALESLHLQGNQLQALPRRLFQPLTHLKTLNLAQNLLAQLPEELFHPLTSLQTLKLSNNALSGLPQGVFGKLGSLQELFLDSNNISELPPQVFSQLFCLERLWLQRNAITHLPLSIFASLGNLTFLSLQWNMLRVLPAGLFAHTPCLVGLSLTHNQLETVAEGTFAHLSNLRSLMLSYNAITHLPAGIFRDLEELVKLYLGSNNLTALHPALFQNLSKLELLSLSKNQLTTLPEGIFDTNYNLFNLALHGNPWQCDCHLAYLFNWLQQYTDRLLNIQTYCAGPAYLKGQVVPALNEKQLVCPVTRDHLGFQVTWPDESKAGGSWDLAVQERAARSQCTYSNPEGTVVLACDQAQCRWLNVQLSPQQGSLGLQYNASQEWDLRSSCGSLRLTVSIEARAAGP
percentage of EdU-negative ([1]; protein concentration 0.016 µM): 4.47 ± 0.7%
percentage of EdU-negative ([1]; protein concentration 0.16 µM): 9.62 ± 2.1%
percentage of EdU-negative ([2]; protein concentration 0.016 µM): 25.6 ± 2.9%
percentage of EdU-negative ([2]; protein concentration 0.16 µM): 31.1 ± 1.1%

MFHQIWAALLYFYGIILNSIYQCPEHSQLTTLGVDGKEFPEVHLGQWYFIAGAAPTKEELATFDPVDNIVFNMAAGSAPMQLHLRATIRMKDGLCVPRKWIYHLTEGSTDLRTEGRPDMKTELFSSSCPGGIMLNETGQGYQRFLLYNRSPHPPEKCVEEFKSLTSCLDSKAFLLTPRNQEACELSNN
percentage of EdU-negative [1, 5]: 4.08 ± 0.27%
percentage of EdU-negative ([1]; protein concentration 0.225 µM): 9.42 ± 0.84%
percentage of EdU-negative [2, 5]: 23.57 ± 0.056%
percentage of EdU-negative ([2]; protein concentration 0.225 µM): 30.2 ± 0.5%

MKKSGVLFLLGIILLVLIGVQGTPVVRKGRCSCISTNQGTIHLQSLKDLKQFAPSPSCEKIEIIATLKNGVQTCLNPDSADVKELIKKWEKQVSQKKKQKNGKKHQKKKVLKVRKSQRSRQKKTT
percentage of EdU-negative [1, 8]: 4.62 ± 0.47%
percentage of EdU-negative [1, 9]: 6.18 ± 1.4%
percentage of EdU-negative [2, 8]: 24.8 ± 0.99%
percentage of EdU-negative [2, 9]: 27.7 ± 2.3%

MLPCASCLPGSLLLWALLLLLLGSASPQDSEEPDSYTECTDGYEWDPDSQHCRDVNECLTIPEACKGEMKCINHYGGYLCLPRSAAVINDLHGEGPPPPVPPAQHPNPCPPGYEPDDQDSCVDVDECAQALHDCRPSQDCHNLPGSYQCTCPDGYRKIGPECVDIDECRYRYCQHRCVNLPGSFRCQCEPGFQLGPNNRSCVDVNECDMGAPCEQRCFNSYGTFLCRCHQGYELHRDGFSCSDIDECSYSSYLCQYRCINEPGRFSCHCPQGYQLLATRLCQDIDECESGAHQCSEAQTCVNFHGGYRCVDTNRCVEPYIQVSENRCLCPASNPLCREQPSSIVHRYMTITSERSVPADVFQIQATSVYPGAYNAFQIRAGNSQGDFYIRQINNVSAMLVLARPVTGPREYVLDLEMVTMNSLMSYRASSVLRLTVFVGAYTF
percentage of EdU-negative [1, 10]: 4.54 ± 0.11%
percentage of EdU-negative [1, 11]: 7.23 ± 0.73%
percentage of EdU-negative [2, 10]: 23.73 ± 0.068%
percentage of EdU-negative [2, 11]: 33 ± 1.2%

MRLGSPGLLFLLFSSLRADTQEKEVRAMVGSDVELSCACPEGSRFDLNDVYVYWQTSESKTVVTYHIPQNSSLENVDSRYRNRALMSPAGMLRGDFSLRLFNVTPQDEQKFHCLVLSQSLGFQEVLSVEVTLHVAANFSVPVVSAPHSPSQDELTFTCTSINGYPRPNVYWINKTDNSLLDQALQNDTVFLNMRGLYDVVSVLRIARTPSVNIGCCIENVLLQQNLTVGSQTGNDIGERDKITENPVSTGEKNAATWSILAVLCLLVVVAVAIGWVCRDRCLQHSYAGAWAVSPETELTGHV
percentage of EdU-negative [1, 5]: 5.11 ± 0.35%
percentage of EdU-negative ([1]; protein concentration 0.225 µM): 6.86 ± 0.54%
percentage of EdU-negative [2, 5]: 27.1 ± 2.8%
percentage of EdU-negative ([2]; protein concentration 0.225 µM): 25.8 ± 2.6%

MGTTARAALVLTYLAVASAASEGGFTATGQRQLRPEHFQEVGYAAPPSPPLSRSLPMDHPDSSQHGPPFEGQSQVQPPPSQEATPLQQEKLLPAQLPAEKEVGPPLPQEAVPLQKELPSLQHPNEQKEGTPAPFGDQSHPEPESWNAAQHCQQDRSQGGWGHRLDGFPPGRPSPDNLNQICLPNRQHVVYGPWNLPQSSYSHLTRQGETLNFLEIGYSRCCHCRSHTNRLECAKLVWEEAMSRFCEAEFSVKTRPHWCCTRQGEARFSCFQEEAPQPHYQLRACPSHQPDISSGLELPFPPGVPTLDNIKNICHLRRFRSVPRNLPATDPLQRELLALIQLEREFQRCCRQGNNHTCTWKAWEDTLDKYCDREYAVKTHHHLCCRHPPSPTRDECFARRAPYPNYDRDILTIDIGRVTPNLMGHLCGNQRVLTKHKHIPGLIHNMTARCCDLPFPEQACCAEEEKLTFINDLCGPRRNIWRDPALCCYLSPGDEQVNCFNINYLRNVALVSGDTENAKGQGEQGSTGGTNISSTSEPKEE
percentage of EdU-negative [1, 12]: 5.01 ± 0.46%
percentage of EdU-negative [1, 13]: 4.52 ± 0.66%
percentage of EdU-negative [1, 14]: 5.74 ± 0.78%
percentage of EdU-negative [1, 15]: 5.29 ± 0.63%
percentage of EdU-negative [2, 12]: 23.4 ± 2%
percentage of EdU-negative [2, 13]: 25.6 ± 1.1%
percentage of EdU-negative [2, 14]: 25.7 ± 1.2%
percentage of EdU-negative [2, 15]: 26 ± 1.7%
